We go through 11 molecules from PMC5385344, “Large Diversity of Functional Nanobodies from a Camelid Immune Library Revealed by an Alternative Analysis of Next-Generation Sequencing Data” (Frontiers in Immunology, 2017).

For experiment [1], the target named is Recombinant extracellular domain of human RON (rhRON) (human, UniProt Q04912).
In experiment [2] the target is full-length human RON expressed on HEK293T cells (HEK293T-hRON) (Homo sapiens, UniProt Q04912).
full-length human RON expressed on HEK293T cells (HEK293T-hRON), sequence (Q04912 25-1400): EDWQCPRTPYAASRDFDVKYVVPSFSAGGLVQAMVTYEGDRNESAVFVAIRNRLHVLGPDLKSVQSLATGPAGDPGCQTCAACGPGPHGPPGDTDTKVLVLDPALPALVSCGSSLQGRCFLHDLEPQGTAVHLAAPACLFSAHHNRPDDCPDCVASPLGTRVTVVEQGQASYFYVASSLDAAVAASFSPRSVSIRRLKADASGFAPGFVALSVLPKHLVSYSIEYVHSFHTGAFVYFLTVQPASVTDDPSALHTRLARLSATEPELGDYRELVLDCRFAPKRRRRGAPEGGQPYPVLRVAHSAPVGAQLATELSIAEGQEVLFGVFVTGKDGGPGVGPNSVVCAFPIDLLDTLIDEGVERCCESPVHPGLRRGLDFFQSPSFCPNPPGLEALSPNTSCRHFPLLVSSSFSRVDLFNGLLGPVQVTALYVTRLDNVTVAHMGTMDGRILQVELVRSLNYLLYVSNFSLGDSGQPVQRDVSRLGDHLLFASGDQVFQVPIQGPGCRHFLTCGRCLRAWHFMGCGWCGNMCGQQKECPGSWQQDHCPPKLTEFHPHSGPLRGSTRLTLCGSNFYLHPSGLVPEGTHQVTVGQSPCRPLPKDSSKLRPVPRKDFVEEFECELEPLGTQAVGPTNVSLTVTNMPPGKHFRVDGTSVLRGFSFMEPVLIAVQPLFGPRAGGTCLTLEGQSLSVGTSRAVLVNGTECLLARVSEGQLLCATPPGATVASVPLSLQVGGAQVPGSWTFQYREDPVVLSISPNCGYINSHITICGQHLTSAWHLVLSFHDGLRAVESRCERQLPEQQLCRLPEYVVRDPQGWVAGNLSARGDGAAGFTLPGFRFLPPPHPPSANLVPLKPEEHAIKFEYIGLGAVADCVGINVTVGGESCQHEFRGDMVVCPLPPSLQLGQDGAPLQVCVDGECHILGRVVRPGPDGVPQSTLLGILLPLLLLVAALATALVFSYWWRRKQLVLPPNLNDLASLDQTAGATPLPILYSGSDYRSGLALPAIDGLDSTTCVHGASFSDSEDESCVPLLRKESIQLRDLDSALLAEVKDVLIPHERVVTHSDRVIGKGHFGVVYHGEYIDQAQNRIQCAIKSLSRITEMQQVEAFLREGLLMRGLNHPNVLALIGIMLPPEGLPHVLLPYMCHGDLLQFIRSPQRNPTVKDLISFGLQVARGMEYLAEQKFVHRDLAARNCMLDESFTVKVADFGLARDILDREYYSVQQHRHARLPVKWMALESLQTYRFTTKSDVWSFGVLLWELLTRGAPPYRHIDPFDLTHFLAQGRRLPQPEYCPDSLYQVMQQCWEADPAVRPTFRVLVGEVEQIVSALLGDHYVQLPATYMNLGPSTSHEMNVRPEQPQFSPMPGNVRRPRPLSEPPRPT

Recombinant extracellular domain of human RON (rhRON), sequence (Q04912 25-957): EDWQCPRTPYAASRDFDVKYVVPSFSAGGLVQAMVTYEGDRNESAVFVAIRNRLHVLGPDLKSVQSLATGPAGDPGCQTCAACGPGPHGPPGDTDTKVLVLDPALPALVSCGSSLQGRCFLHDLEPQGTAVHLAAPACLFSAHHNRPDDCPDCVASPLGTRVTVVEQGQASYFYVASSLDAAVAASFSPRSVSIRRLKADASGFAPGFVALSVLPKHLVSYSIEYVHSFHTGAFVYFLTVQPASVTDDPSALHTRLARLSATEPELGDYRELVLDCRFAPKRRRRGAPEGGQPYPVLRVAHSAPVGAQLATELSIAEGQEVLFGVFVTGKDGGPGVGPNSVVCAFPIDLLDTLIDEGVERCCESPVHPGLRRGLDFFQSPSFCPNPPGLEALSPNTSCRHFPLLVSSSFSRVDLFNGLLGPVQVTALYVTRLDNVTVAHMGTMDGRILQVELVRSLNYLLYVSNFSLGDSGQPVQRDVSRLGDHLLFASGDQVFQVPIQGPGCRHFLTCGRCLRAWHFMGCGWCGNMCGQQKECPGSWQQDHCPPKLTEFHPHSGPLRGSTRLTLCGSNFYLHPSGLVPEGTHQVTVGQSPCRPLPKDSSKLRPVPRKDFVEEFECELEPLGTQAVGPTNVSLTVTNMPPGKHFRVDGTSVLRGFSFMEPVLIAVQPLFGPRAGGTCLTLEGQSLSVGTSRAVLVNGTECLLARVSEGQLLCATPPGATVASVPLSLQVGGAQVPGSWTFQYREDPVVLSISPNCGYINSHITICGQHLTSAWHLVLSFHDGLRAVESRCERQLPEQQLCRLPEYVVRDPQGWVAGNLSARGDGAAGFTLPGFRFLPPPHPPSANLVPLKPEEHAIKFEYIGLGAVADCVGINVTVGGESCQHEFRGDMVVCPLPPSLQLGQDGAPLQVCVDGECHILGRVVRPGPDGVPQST

B1: 2C01 (VHH)
VHH: EVQLVESGGGLVQAGGSLRLSCAPSERTFRSDVMGWFRQAPGRGREFVAAIAENGDILTRFEGSAKGRFTISRDNANDTVYLQMSSLKPEDTAIYYCAARWGTITTVSHQYHFWGQGTQVTVSS
As for B1, the binding result in experiment [1] and in experiment [2] was “binds” throughout.

B2: 2A01 (VHH)
VHH: EVQLVESGGGLVQAGGSLRLSCAASSRTFSTYPMAWFRQAPGKEREFVATISRGGITSYYADSVKGRFTISRDNAKNTVYLQMNSLKPEDTAVYYCAQYKASATAYTRGRPDEIVHWGQGTQVTVSS
With B2, the binding result in experiment [1] and in experiment [2] was “binds” each time.

B3: 2D04 (VHH)
VHH: EVQLVESGGGLVQAGGSLRLSCAASGRIFSVYRVGWFRQAPGKEREIVASINNRNGASTFYADSVKGRFTISRDSAKNTVYLQMRSLRPEDTAVYYCAARDQGTTEYHYWGQGTLVTVSS
Regarding B3, the binding result in experiment [1] and in experiment [2] was “binds” throughout.

B4: 2F08 (VHH)
VHH: EVQLVESGGGLVQAGGSLRLSCAASGRYPMGWFCQAPGGEREFVAAISRSGASTYYADSVKGRFTIARDSAKNTVYLEMNSLKPEDTAVYYCAAKENYYGDYGLAQNYDYWGQGTQVTVSS
On to B4, for which the binding result in experiment [1] and in experiment [2] was “binds” in each case.

B5: KY704051 (VHH)
VHH: EVQLVESGGGLVQPGGSLRLSCAASGFAFSYYYMYWVRQAPGKGLEWVSRISPGGGTTYYADSVKGRFTISRDNAKNTLYLQMNSLNSEDTAVYYCAKDNRRLIDSGAYDYRGQGTLVTVSS
As to B5, the binding result in experiment [2] is listed as “binds”.

B6: 2A02 (VHH)
VHH: EVQLVESGGGTVKAGGSLRLSCAAPRRYHMGWFRQAPGKEREFVTAISSSGGSTSYADSVKGRFTISRDSAKSTVYLQMNSLKPEDTAVYFCAARSGLWMATSTQGHYDYWGQGTQVTVSS
Consider B6, for which the binding result in experiment [1] and in experiment [2] was “binds” in each case.

B7: 2F12 (VHH)
VHH: EVQLVESGGGLVQAGGSLRLSCAASGSSTYEMGWFRQAPGKEREFVAGINWNGGRTYYADSVKGRFTISRDNAKMTVYLQMNSLKPEDTAAYYCSAAYGLRDAFRMYRSEYPYWGQGTQVTVSS
B7: the binding result in experiment [1] and in experiment [2] was “binds” throughout.

B8: KY704063 (VHH)
VHH: EVQLVESGGGLVQPGGSLTLSCVAYGITVPDYPIGWFRQSPGKEREGVSCIRRSGGRIVYSDSAKGRFNTSRDNAENTVYLQMNSLAPEDTAVYYCATKCMVEFGDTTYSDYAGLNYWGKGTLVTVSS
As for B8, in experiment [1], the binding result is “binds”.

B9: 2B10 (VHH)
VHH: EVQLVESGGGLVQAGGSLRLSCATSGISFRLSNMGWYRQAPGKSREFVAEITSGGNWNYADSVKGRFTISRDNAKSTVYLQMNSLKPEDTGVYYCNRLGTPLWGQGTQVTVSS
With B9, the binding result in experiment [1] and in experiment [2] was “binds” throughout.

B10: 2C11 (VHH)
VHH: EVQLVESGGGLVQPGGSLRLSCAASGFTFNYYWMYWVRQRPGKGLEWVSAINTGGGTTDYADSVKGRFTISRDNAKSTLYLQMDSLKSEDTAVYYCAKDRRRLIRSEYDYLGQGTQVTVSS
Take B10: the binding result in experiment [1] and in experiment [2] was “binds” throughout.

B11: KY704065 (VHH)
VHH: EVQLVESGGGLVQAGGSLRLSCAVSNTVFRLRTMDWYRQAPEKRREWVATITSDGSTDYVGAVKGRFTISRDNAKSTMYLQMNNVKPEDTAVYYCYTANFWGQGTLVTVSS
On to B11, for which the binding result in experiment [1] was “binds”.
